The values that follow come from US11351270B2, “Junctophilin-2 fragments and uses therefor” (University of Iowa Research Foundation, priority 2016, dated 2022).

The assay deals with JP2-KD cardiomyocytes. Briefly: Confocal Ca2+ imaging in JP2-KD cardiomyocytes after adenoviral expression. The conditions noted are these: 1-Hz field stimulation. The class given is cell-based, mouse. The text has this:
Specifically, conditional shJP2 mice (provided by Dr. Wehrens) (van Oort et al., 2011) were crossed with mice carrying the cardiac-specific α-myosin heavy chain promoter upstream of Cre (% MHC-Cre, also FVB-Tg(Myh6-cre)2182Mds/J, The Jackson Laboratory). The shJP2 mice were maintained on a C57BL/6 background for more than 10 generations. The αMHC-Cre mice were maintained on an FVB background. PCR was used to genotype the offspring. The near complete depletion of JP2 protein in JP2-KD (αMHC-Cre X shJP2) hearts has been reported recently (Chen et al., 2013). JP2-KD mice were sacrificed at 2 months of age for isolation and culture of ventricular cardiomyocytes as described below.
Genecarrior-1 (Epoch Lab) was used to transfect plasmids into HEK293T cells. Isolation and culture of cardiomyocytes were performed as described previously (Guo et al., 2012). […] Ca^2+ Imaging experiments were performed 40 hours after adenoviral infection.
Cells were loaded with Rhod-2AM at 37° C. for 20 minutes, followed by washing with Tyrode's solution at room temperature for 15 minutes before Ca^2+ imaging. Confocal images were acquired using a ×63, 1.3 numerical aperture oil immersion objective mounted on a Zeiss LSM 510 confocal microscope. Confocal line scanning was used to record Ca^2+ signals. Steady-state Ca^2+ transients were recorded in Tyrode's solution containing 1.8 mM Ca^2+ under field stimulation of 1 Hz. At least five steady-state transients for each cell were analyzed and averaged to represent Ca^2+ signals of the cell. Ca^2+ imaging data were analyzed by using a home-complied software, CaTeasy, which is coded in MATLAB 2013a (Mathworks). Briefly, the program normalizes Ca^2+ transient images on a column-by-column basis (512 columns/image). The characteristic parameters of normalized transients were detected automatically. The firing time of every scanning pixel was detected column by column on the basis of the maximum local variability of pixel intensity. The profile of the point-to-point firing time was indicated by a red line overlapping on the Ca^2+ image. Index of desynchronization, defined by the mean absolute deviation of firing time of each scanning pixel (with every 8 pixels binned), was used to evaluate the dyssynchrony of Ca^2+ transients. This automated software for calcium transient analysis is available upon request.

B1: JP2NT: shorter form of Junctophilin-2 including the first 565 amino acids of N-terminus of JP2 (protein, UniProt Q9BR39 1-565, looked up, fragment)
chain: MSGGRFDFDDGGAYCGGWEGGKAHGHGLCTGPKGQGEYSGSWNFGFEVAGVYTWPSGNTFEGYWSQGKRHGLGIETKGRWLYKGEWTHGFKGRYGIRQSSSSGAKYEGTWNNGLQDGYGTETYADGGTYQGQFTNGMRHGYGVRQSVPYGMAVVVRSPLRTSLSSLRSEHSNGTVAPDSPASPASDGPALPSPAIPRGGFALSLLANAEAAARAPKGGGLFQRGALLGKLRRAESRTSVGSQRSRVSFLKSDLSSGASDAASTASLGEAAEGADEAAPFEADIDATTTETYMGEWKNDKRSGFGVSERSSGLRYEGEWLDNLRHGYGCTTLPDGHREEGKYRHNVLVKDTKRRMLQLKSNKVRQKVEHSVEGAQRAAAIARQKAEIAASRTSHAKAKAEAAEQAALAANQESNIARTLARELAPDFYQPGPEYQKRRLLQEILENSESLLEPPDRGAGAAGLPQPPRESPQLHERETPRPEGGSPSPAGTPPQPKRPRPGVSKDGLLSPGAWNGEPSGEGSRSVTPSEGAGRRSPARPATERMAIEALQAPPAPSREPEVALYQG
modifications: GST or adenoviral forms
notes: shorter form of Junctophilin-2 including the first 565 amino acids of N-terminus of JP2
Regarding B1, the “restoration of Ca2+ transients” value was “failed to restore”.
